Measurements taken from patent US20190091326A1.

Experiments:
[1] = target: MN V1/V2 scaffold, wildtype, gD-tagged, produced in GnTI- 293 HEK cells (herpes simplex virus 1; HIV-1 isolate MN) (UniProt Q69091); assay: ELISA; table row MN V1/V2 wt, GnTI-
ZM197 V1/V2 wt (293) = assay: ELISA; table row ZM197 V1/V2 wt, column 293
[2] = target: 108060-I169K V1/V2 scaffold, gD-tagged, produced in GnTI- 293 HEK cells (herpes simplex virus 1; HIV-1 isolate 108060); assay: ELISA; table row 108060 V1/V2 I169K, GnTI-
ZM233 mutant - N156 = assay: ELISA, PG9 titrated, absorbance 490 nm
ZM233 mutant + N156 = assay: ELISA, PG9 titrated, absorbance 490 nm
Bal.01 V1/V2 wt (293) = assay: ELISA; table row Bal.01 V1/V2 wt, column 293
[3] = target: ZM233 V1/V2 scaffold, engineered, gD-tagged, produced in GnTI- 293 HEK cells (herpes simplex virus 1; HIV-1 isolate ZM233); assay: capture ELISA on 34.1 anti-gD; scaffold made in GnTI- cells
[4] = target: 108060 V1/V2 scaffold, wildtype, gD-tagged, produced in GnTI- 293 HEK cells (herpes simplex virus 1; HIV-1 isolate 108060); assay: ELISA; table row 108060 V1/V2 wt, GnTI-
ZM109 V1/V2 wt (293) = assay: ELISA; table row ZM109 V1/V2 wt, column 293
A244 V1/V2.eng1 (GnTI-) = assay: ELISA; table row A244 V1/V2.eng1*, GnTI-
CAP.45 V1/V2 wt (GnTI-) = assay: ELISA; table row CAP.45 V1/V2 wt, GnTI-
[5] = target: 108060 I169K/E172V/T161M/N156I V1/V2 scaffold, gD-tagged, produced in normal 293 HEK cells (herpes simplex virus 1; HIV-1 isolate 108060); assay: ELISA; table row 108060 I169K/E172V/T161M/N156I, column 293
[6] = target: ZM109 V1/V2 scaffold, wildtype, gD-tagged, produced in GnTI- 293 cells (herpes simplex virus 1; HIV-1 isolate ZM109); assay: ELISA; table row ZM109 V1/V2 wt, GnTI-
[7] = target: JRFL-E168K V1/V2 scaffold, engineered, gD-tagged, produced in GnTI- 293 HEK cells (herpes simplex virus 1; HIV-1 isolate JRFL); assay: capture ELISA on 34.1 anti-gD; purified scaffold made in GnTI- cells
[8] = target: MN V1/V2 scaffold, engineered, gD-tagged, produced in GnTI- 293 HEK cells (herpes simplex virus 1; HIV-1 isolate MN); assay: as above
[9] = target: 108060 I169K/E172V/T161M/N156I/S164P/L165G V1/V2 scaffold, gD-tagged, produced in GnTI- 293 HEK cells (herpes simplex virus 1; HIV-1 isolate 108060); assay: as above
[10] = target: 108060 I169K/E172V/T161M/N156I/S164G/D167G V1/V2 scaffold, gD-tagged, produced in GnTI- 293 HEK cells (herpes simplex virus 1; HIV-1 isolate 108060); assay: as above

PG9 monoclonal antibody was tested, and the EC50 [1] was greater than 10 µg/mL, the EC50 (ZM197 V1/V2 wt (293)) was 2.74 µg/mL and the EC50 [2] was 0.679 µg/mL. It also gave an EC50 (read off the curve) (ZM233 mutant - N156) of 0.03 µg/mL, an EC50 (read off the curve) (ZM233 mutant + N156) of 0.1 µg/mL and an EC50 (Bal.01 V1/V2 wt (293)) of 0.853 µg/mL. For the same substance, the EC50 [3] was 0.01 µg/mL, the EC50 [4] was greater than 10 µg/mL and the EC50 (ZM109 V1/V2 wt (293)) was 0.517 µg/mL. For the same substance, the EC50 (A244 V1/V2.eng1 (GnTI-)) was 0.00406 µg/mL, the EC50 (CAP.45 V1/V2 wt (GnTI-)) was 0.0527 µg/mL and the EC50 [5] was 0.599 µg/mL. The EC50 [6] was 0.0143 µg/mL, the EC50 [7] was 0.013 µg/mL and the EC50 [8] was 0.0079 µg/mL. For the same substance, the EC50 [9] was 0.00834 µg/mL and the EC50 [10] was 0.0068 µg/mL.
